Two molecules from US7790363B2, “Diagnostic test for vitamin B12” (Abbott Laboratories Inc., priority 2005, dated 2010) can be followed below.

Data set [1] in a line: Solubility of the protein expressed in E. coli. The format is physicochemical. The settings on record: expression in E. coli from the named vector. As to the method: Using the Porcine IF cDNA14-1248 (SEQ ID NO: 5) as the template and the Forward Primer pIFMP-ForI (SEQ ID NO: 14) and Reverse Primer pIFMP-RevXhoI (SEQ ID NO: 15), the cDNA encoding the Porcine IF cDNA54-1254-Mature Peptide was amplified by PCR. The PCR profile was as follows: one initial denaturation step at a temperature of 95° C. for 5 minutes; then 33 cycles of the following conditions: a temperature of 95° C. for 30 seconds, then a temperature of 57° C. for 30 seconds, then a temperature of 72° C. for 1 minute; followed by a final extension at a temperature of 72° C. for 5 minutes. This PCR fragment was subcloned into pGEMEX-1 expression vector (purchased from Promega Corporation, Madison, Wis.).
To produce a soluble version of this protein, cDNA encoding the Porcine IF cDNA54-1254-Mature Peptide was amplified by PCR using IF cDNA14-1248 (SEQ ID NO: 5) as the template and the Forward primer pIF-PIC-MP-For EcoR1 (SEQ ID NO: 16) and the Reverse pIF-MP-pMAL-SaI1 Rev primer (SEQ ID NO: 17) and the following PCR conditions: one initial denaturation step at a temperature of 95° C. for 5 minutes; then 35 cycles of the following conditions: a temperature of 95° C. for 30 seconds, then a temperature of 56° C. for 30 seconds, then a temperature of 72° C. for 1 minute; followed by a final extension at a temperature of 72° C. for 5 minutes. […]

Data set [2] relates to anti-intrinsic factor antibody. Nature of the data set: Western blotting with anti-intrinsic factor antibody. Conditions: E. coli lysate, SDS-PAGE, blotted onto nitrocellulose, probed with anti-intrinsic factor antibody. The format is binding. The source says: FIG. 3 illustrates the binding of recombinant porcine intrinsic factor to anti-intrinsic factor antibody by Western blotting. The E. coli cells were lysed and the proteins were resolved using SDS-PAGE and blotted onto a nitrocellulose membrane. The membrane was then probed with anti-intrinsic factor antibody. Lane 1 contains molecular weight markers (marked in kilodaltons). Lanes 2, 3, 4, and 5 represent cells from various clones expressing recombinant porcine intrinsic factor. Lane 6 contains the native porcine intrinsic factor (purified from hog (Sus scrofa) gut).
The E. Coli lysate containing the expressed recombinant porcine intrinsic factor was run on an SDS-PAGE (Polyacrylamide Gel Electrophoresis), and the gel was blotted onto nitrocellulose. This blot was probed with anti-intrinsic factor antibody and developed using an appropriate substrate. […] Referring now to FIG. 3, Lane 1 contains molecular weight markers (marked in kilodaltons). Lanes 2, 3, 4, and 5 represent cells from various clones expressing recombinant porcine intrinsic factor. Lane 6 contains the native porcine intrinsic factor (purified from hog (Sus scrofa) gut).
A general note: Immunoblotting shows a protein as a band on a membrane.

The nature of data set [3]: "ARCHITECT" Intrinsic Factor Binding Capacity Assay (one-step competitive assay). The settings on record: read from vitamin B12 calibration curve, converted to binding capacity using an equation. The method, then: The vitamin B12-binding capacity of the recombinant porcine Intrinsic Factor was measured using in “ARCHITECT” Intrinsic Factor Binding Capacity Assay. The assay is a one-step competitive assay where intrinsic factor from the test sample competes with intrinsic factor coated onto microparticles for the vitamin B12-acridinium tracer. Thus, signal in the assay is inversely proportional to the concentration of intrinsic factor in the test sample. The results are read from a vitamin B12 calibration curve, and the vitamin B12 concentration results are converted to binding capacity using an equation. The Binding Capacity Value for the recombinant porcine intrinsic factor was determined to be 904 ng/ml.

Data set [4] can be described thus: vitamin B12-Alkaline Phosphatase conjugate blot. In kind it is binding. The settings on record: E. coli lysate, SDS-PAGE, blotted onto nitrocellulose, probed with vitamin B12-alkaline phosphatase conjugate. The source says:
FIG. 2 illustrates the binding of recombinant porcine intrinsic factor to vitamin B12. The E. coli cells were lysed and the proteins were resolved using SDS-PAGE and blotted onto a nitrocellulose membrane. The membrane was probed with vitamin B12 conjugate to alkaline phosphatase. […] Lane 1 contains molecular weight markers (marked in kilodaltons). Lanes 2, 3, 4, and 5 represent cells from various clones expressing recombinant porcine intrinsic factor. Lane 6 contains the native porcine intrinsic factor (purified from hog (Sus scrofa) gut).
The E. coli lysate containing the expressed recombinant porcine intrinsic factor was run on an SDS-PAGE (Polyacrylamide Gel Electrophoresis), and the gel was blotted onto nitrocellulose. This blot was probed with vitamin B12-alkaline phosphatase conjugate and developed using an appropriate substrate. […] Referring now to FIG. 2, Lane 1 contains molecular weight markers (marked in kilodaltons). Lanes 2, 3, 4, and 5 represent cells from various clones expressing recombinant porcine intrinsic factor. Lane 6 contains the native porcine intrinsic factor (purified from hog (Sus scrofa) gut).

B1: Porcine IF cDNA54-1254-Mature Peptide: Porcine intrinsic factor mature peptide, 399 amino acids, SEQ ID NO: 9, expressed from pGEMEX-1 expression vector (protein)
chain: STQTRSSCSVPSAEQPLVNGIQVLMEQSVTSSAFPNPSILIAMNLAGAYNTEAQELLTYKLMATNTSDLTTGQLALTIMALTSSCRDPGNRIAILQGQMENWAPPSLDTHASTFYEPSLGILTLCQNNPEKTLPLAARFAKTLLANSSPFNMDTGAMATLALTCMYNKIPVGSEEGYRALFSQVLRNTVENISMRIQDNGIIGNIYSTGLAMQALSVTPEQPNKEWDCQKTMDTVLTEIKEGKFHNPMAIAQILPSLKGKTYLDVPHVSCSPGHEVPPTLPNHPSPVPTPAPNITVIYTINNQLRGVELLFNETISVSVKRGSVLLIVLEEAQRKNPKFKFETTMTSWGPVVSSINNIAENVNHRTYWQFLSGQTPLNEGVADYIPFNHEHITANFTQY
modifications: S. scrofa
Turning to B1, the “solubility of the expressed protein” value in data set [1] was “insoluble and formed inclusion bodies”.

B2: recombinant porcine intrinsic factor: Recombinant porcine intrinsic factor produced in E. coli from the pMAL-IF or pET32a-IF vector, affinity purified (protein)
chain: YNLKAQKLLTYKLMATNTSDLTTGQLALTIMALTSSCRDPGNRIAILQGQMENWAPPSLDTHASTFYEPSLGILTLCQNNPEKTLPLAARFAKTLLANSSPFNMDTGAMATLALTCMYNKIPVGSEEGYRALFSQVLRNTVENISMRIQDNGIIGNIYSTGLAMQALSVTPEQPNKEWDCQKTMDTVLTEIKEGKFHNPMAIAQILPSLKGKTYLDVPHVSCSPGHEVPPTLPNHPSPVPTPAPNITVIYTINNQLRGVELLFNETISVSVKRGSVLLIVLEEAQRKNPKFKFETTMTSWGPVVSSINNIAENVNHRTYWQFLSGQTPLNEGVADYIPFNHEHITANFTQY
modifications: S. scrofa
In the case of B2, in data set [2], the “binding to anti-intrinsic factor antibody (band developed color)” value is listed as “recognized by the antibody”. In addition, in data set [3], the “Binding Capacity Value (vitamin B12-binding capacity)” value stood at 904 ng/mL. The “binding to vitamin B12 (band developed color)” value in data set [4] is “bound to vitamin B12”.
